Here are results for three sequences from the supplement of paper PMC5998384.

In data set [1] the test system is HeLa Kyoto. As to the kind of experiment: solubility in G1/S (NP-40 vs SDS abundance) (log2 ratio); higher = more soluble. To be noted: cell cycle stage: G1/S.
The test system of data set [2] is HeLa Kyoto. As to the kind of experiment: solubility change mitosis vs G1/S (difference of NP-40 vs SDS log2 ratios) (log2 ratio difference); higher = more soluble in mitosis.
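Wherever solubility change mitosis vs G1/S (difference of NP-40 vs SDS log2 ratios) is given: synchronized HeLa Kyoto cells (double thymidine block for G1/S, nocodazole release for mitosis), protein amounts in NP-40 versus SDS lysates quantified by mass spectrometry, three biological replicates.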
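Wherever solubility in G1/S (NP-40 vs SDS abundance) is given: HeLa Kyoto cells arrested at G1/S by double thymidine block, proteins quantified by TMT10plex mass spectrometry in mild NP-40 versus SDS extracts, three biological replicates.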

Turning to “MCARMAGRTTAAPRGPYGPWLCLLVALALDVVRVDCGQAPLDPVYLPAALELLDAPEHFRVQQVGHYPPANSSLSSRSETFLLLQPWPRAQPLLRASYPPFATQQVVPPRVTEPHQRPVPWDVRAVSVEAAVTPAEPYARVLFHLKGQDWPPGSGSLPCARLHATHPAGTAHQACRFQPSLGACVVELELPSHWFSQASTTRAELAYTLEPAAEGPGGCGSGEENDPGEQALPVGGVELRPADPPQYQEVPLDEAVTLRVPDMPVRPGQLFSATLLLRHNFTASLLTLRIKVKKGLHVTAARPAQPTLWTAKLDRFKGSRHHTTLITCHRAGLTEPDSSPLELSEFLWVDFVVENSTGGGVAVTRPVTWQLEYPGQAPEAEKDKMVWEILVSERDIRALIPLAKAEELVNTAPLTGVPQHVPVRLVTVDGGGALVEVTEHVGCESANTQVLQVSEACDAVFVAGKESRGARGVRVDFWWRRLRASLRLTVWAPLLPLRIELTDTTLEQVRGWRVPGPAEGPAEPAAEASDEAERRARGCHLQYQRAGVRFLAPFAAHPLDGGRRLTHLLGPDWLLDVSHLVAPHARVLDSRVASLEGGRVVVGREPGVTSIEVRSPLSDSILGEQALAVTDDKVSVLELRVQPVMGISLTLSRGTAHPGEVTATCWAQSALPAPKQEVALSLWLSFSDHTVAPAELYDRRDLGLSVSAEEPGAILPAEEQGAQLGVVVSGAGAEGLPLHVALHPPEPCRRGRHRVPLASGTAWLGLPPASTPAPALPSSPAWSPPATEATMGGKRQVAGSVGGNTGVRGKFERAEEEARKEETEAREEEEEEEEEMVPAPQHVTELELGMYALLGVFCVAIFIFLVNGVVFVLRYQRKEPPDSATDPTSPQPHNWVWLGTDQEELSRQLDRQSPGPPKGEGSCPCESGGGGEAPTLAPGPPGGTTSSSSTLARKEAGGRRKRVEFVTFAPAPPAQSPEEPVGAPAVQSILVAGEEDIRWVCEDMGLKDPEELRNYMERIRGSS [TMEM132A]”, the “solubility in G1/S (log2)” value with HeLa Kyoto [1] was -0.00491. For the same sequence, the “solubility change mitosis (log2)” value in the data set on HeLa Kyoto [2] was -0.0467.
On the same counts, the results for “MWMTPKRSKMEVDEALVFRPEWTQRYLVVEPPEGDGALCLVCRRLIVATRERDVRRHYEAEHEYYERYVADGERAALVERLRQGDLPVASFTPEERAARAGLGLCRLLALKGRGWGEGDFVYQCMEVLLREVLPEHVSVLQGVDLSPDITRQRILSIDRNLRNQLFNRARDFKAYSLALDDQAFVAYENYLLVFIRGVGPELEVQEDLLTIINLTHHFSVGALMSAILESLQTAGLSLQRMVGLTTTHTLRMIGENSGLVSYMREKAVSPNCWNVIHYSGFLHLELLSSYDVDVNQIINTISEWIVLIKTRGVRRPEFQTLLTESESEHGERVNGRCLNNWLRRGKTLKLIFSLRKEMEAFLVSVGATTVHFSDKQWLCDFGFLVDIMEHLRELSEELRVSKVFAAAAFDHICTFEVKLNLFQRHIEEKNLTDFPALREVVDELKQQNKEDEKIFDPDRYQMVICRLQKEFERHFKDLRFIKKDLELFSNPFNFKPEYAPISVRVELTKLQANTNLWNEYRIKDLGQFYAGLSAESYPIIKGVACKVASLFDSNQICEKAFSYLTRNQHTLSQPLTDEHLQALFRVATTEMEPGWDDLVRERNESNP [EPM2AIP1]” are -0.485 and 0.291.
On the same counts, the results for “MRDSTGAGNSLVHKRSPLRRNQKTPTSLTKLSLQDGHKAKKPACKFEEGQDVLARWSDGLFYLGTIKKINILKQSCFIIFEDSSKSWVLWKDIQTGATGSGEMVCTICQEEYSEAPNEMVICDKCGQGYHQLCHTPHIDSSVIDSDEKWLCRQCVFATTTKRGGALKKGPNAKALQVMKQTLPYSVADLEWDAGHKTNVQQCYCYCGGPGDWYLKMLQCCKCKQWFHEACVQCLQKPMLFGDRFYTFICSVCSSGPEYLKRLPLQWVDIAHLCLYNLSVIHKKKYFDSELELMTYINENWDRLHPGELADTPKSERYEHVLEALNDYKTMFMSGKEIKKKKHLFGLRIRVPPVPPNVAFKAEKEPEGTSHEFKIKGRKASKPISDSREVSNGIEKKGKKKSVGRPPGPYTRKMIQKTAEPLLDKESISENPTLDLPCSIGRTEGTAHSSNTSDVDFTGASSAKETTSSSISRHYGLSDSRKRTRTGRSWPAAIPHLRRRRGRLPRRALQTQNSEIVKDDEGKEDYQFDELNTEILNNLADQELQLNHLKNSITSYFGAAGRIACGEKYRVLARRVTLDGKVQYLVEWEGATAS [MTF2]” are -1.31 and 0.618.
